The values below come from paper PMC12297318, “Removal of promoter CpG methylation by epigenome editing reverses HBG silencing”.

Data set [1] has as its target MBD2sc WT (MBD2 MBD-IDR-CC fused to GATAD2A CC) (UniProt Q9UBB5 150-393+Q86YP4:138-178, internal_change). Kind of data set: EMSA; Protein at 50x molar excess over probe, 10 min at room temperature; binding buffer not stated (protein storage: 10 mM Tris-HCl pH 7.5, 150 mM NaCl, 1 mM EDTA, 1 mM PMSF, 10% glycerol); 6% native PAGE in TBE (45 mM Tris, 45 mM boric acid, 1 mM EDTA) at 4 C. As to conditions: protein: recombinant; tags: pET32a vector tags (Ni-NTA purified); label: 32P 5' end of antisense strand; blunt.

Data set [2] concerns the target MBD2sc Y178F (UniProt Q9UBB5 150-393+Q86YP4:138-178, Y178F;internal_change). The description is as above. The settings on record: protein: recombinant; tags: pET32a vector tags (Ni-NTA purified); label: 32P 5' end of antisense strand; blunt.

MBD2sc WT (MBD2 MBD-IDR-CC fused to GATAD2A CC), sequence (Q9UBB5 other isoform, or with tags, fused parts or gaps): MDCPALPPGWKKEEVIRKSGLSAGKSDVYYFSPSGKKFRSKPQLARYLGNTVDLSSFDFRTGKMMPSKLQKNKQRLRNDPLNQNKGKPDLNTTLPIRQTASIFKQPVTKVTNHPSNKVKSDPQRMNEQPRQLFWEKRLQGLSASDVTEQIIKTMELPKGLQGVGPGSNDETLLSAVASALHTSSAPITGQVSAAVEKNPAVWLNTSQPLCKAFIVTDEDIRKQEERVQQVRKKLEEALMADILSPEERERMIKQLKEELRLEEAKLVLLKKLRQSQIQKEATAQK
MBD2sc Y178F, sequence (Q9UBB5 other isoform, or with tags, fused parts or gaps Y178F/| Y178F Y178F): as the sequence (Q9UBB5 other isoform, or with tags, fused parts or gaps) above, with Y29F counted along it

B1: HBG -53/-50 CpG sites, methylated (dsDNA)
DNA 1: TGAGGCCAGGGGCCGGCGGCTGGCTAGGGAT
DNA 2: ATCCCTAGCCAGCCGCCGGCCCCTGGCCTCA
modifications: 5-methyl-dC at positions 14 and 17 of sense and 14 and 17 of antisense
Turning to B1, the binding result in data set [1] was “binds”; in data set [2] it was “no binding”.

B2: HBG -53/-50 CpG sites, unmethylated (dsDNA)
DNA 1: B1 DNA 1
DNA 2: B1 DNA 2
Regarding B2, in data set [1], the binding result is listed as “no binding”.

B3: BCAT1 promoter CpG sites, methylated (dsDNA)
DNA 1: CCGGCCCTCTCGCGGCGGAGACTCGCGACCTAGCGGATTGCATCAGCAGGAAGAC
DNA 2: GTCTTCCTGCTGATGCAATCCGCTAGGTCGCGAGTCTCCGCCGCGAGAGGGCCGG
modifications: 5-methyl-dC at sense positions 2,11,13,16,24,26,34 and antisense positions 21,29,31,39,42,44,53
B3: the binding result is reported as “binds” in data set [1] and “no binding” in data set [2].

B4: BCAT1 promoter CpG sites, unmethylated (dsDNA)
DNA 1: B3 DNA 1
DNA 2: B3 DNA 2
Take B4: the binding result in data set [1] is given as “no binding”.
